Assays:
splenocytes [1] = assay: Splenocyte proliferation after in vitro stimulation with peptides or GALNS (Examples 2, 4); type: cell-based, mouse; details: for proliferation of splenocytes relative to age of the animal and length of treatment: MKC mice, weeks of infusion
Protocol: (§1) Mice (MKC) genetically engineered not to express GALNS were used in these examples. […] 200 μl of the emulsion were administered as a subcutaneous injection. […] Control mice (n=2) were immunized with PBS emulsified in CFA and IFA respectively (Chung et al. (2005) J. Leukoc Biol. 77(6):906-13)). […] A control group (n=5) received PBS (Tomatsu et al. (2008) Hum Mol Genet. 15; 17(6):815-24). […]
Ten days after the last immunization or the last infusion, the mice were euthanized and the spleen was aseptically removed. […] The suspension was centrifuged at 1000 rpm […]. The red blood cells were lysed using a hypotonic lysis buffer (Sigma® R7757). […] Cells were pulsed with 1 JpCi of [3H]thymidine for the last 18 h of incubation. [3H]thymidine incorporation was measured by […] (Trilux Microbeta Counter). The Stimulation Index (SI) was calculated as the mean value of the three wells for each condition divided by the mean value of the unstimulated cells (Mirano-Bascos (2010) J Virol. 84(7):3303-11).

splenocytes [2] = assay: Cytokine production by splenocytes after in vitro stimulation (Example 3); type: cell-based, mouse; details: splenocytes of MKC mice treated by ERT with GALNS; culture supernatant
Protocol: as §1
The production of cytokines after peptide stimulation was evaluated as intracellular staining (by flow cytometry) and secreted cytokines (by LUMINEX). […] The cells were treated with 1 μl of a protein transport inhibitor BD GolgiPlug™ during 5 h at 37° C., saturated humidity and 5% CO2. The suspension of cells was centrifuged at 1000 rpm during 10 minutes. The supernatants were collected by further analysis with LUMINEX. The Fc receptors were blocked with 1 μl of α-mouse CD16/32 (e-Bioscience) during 15 min at 4° C. After washing, the cells were stained with PE-Cy7-labeled anti-mouse CD4 and Alexa700-labeled anti-mouse CD8 antibodies during 30 min at 4° C. After two washes, cells were permeabilized with a BD fixation/permeabilization solution during 20 min at 4° C. Cells were washed two times and stained with a cocktail of antibodies for intracellular staining (PE-labeled anti-mouse IL-4, APC-labeled anti-mouse IL-5 and FITC-labeled anti-mouse IFN-γ). After two washes, cells were analyzed by flow cytometry. Secreted cytokines (IL-4, IL-5, IL-13, IL-17 and IFN-γ) in the collected supernatants were detected by using a bead immunoassay kit which allows the measurement of multiple proteins simultaneously (LUMINEX technology, using a Millipore Milliplex™ kit).

[3] = tested on: Morquio A mice and WT mice; assay: Plasma IgG anti-GALNS by indirect ELISA in mice treated by ERT (Example 8); type: in vivo, mouse; details: 16 i.v. infusions of GALNS
Protocol: Morquio A mouse models: a). […] 14(22): p. 3321-35).c). Missense mutation mice (Galnstm (C76S) SLU C2) (Tomatsu et al. (2007) Mol Genet Metab., 91(3): p. 251-8), and wild-type C57BL6 mice were treated by ERT. […] A control group received PBS.
An indirect ELISA technique was used to detect plasma IgG antibodies against GALNS in treated and untreated mice. […] The plates were blocked with 3% casein in PBS during 1 h at room temperature in a wet chamber. After two washes, first with TTBS (10 mM Tris, 150 mM NaCl, 0.05% Tween 20, pH 7.5), and then with TBS (10 mM Tris, 150 mM NaCl, 0.05%, pH 7.5), […] of mice plasma samples diluted (1:1,000) in TTBS were added to the plate and incubated 2 h at 37° C. in a wet chamber. Four washes with TTBS were performed. 100 μl of anti-mouse IgG-Peroxidase (Sigma) 1:5,000 dilution in TTBS were applied. After three washes with TTBS, followed by one wash with TBS, the experiment was developed with the substrate TMB (3,3′,5,5′-Tetramethylbenzidine, Sigma). The enzymatic reaction was stopped with IN HCl solution and the absorbance was measured at 450 nm in a microplate reader Multiskan® EL800 (Bio-Tek Instruments). Plasma concentrations of IgG antibodies anti-GALNS were derived by extrapolation of the absorbance values from a calibration curve using a mAb anti-GALNS.

Row | Molecule | proliferation of splenocytes relative to age of the animal and length of treatment (splenocytes [1]) | splenocyte proliferation response (splenocytes [1]; splenocytes of MKC mice treated by ERT with GALNS, in vitro peptide stimulation) | secretion of cytokines IL-5 and IFN-γ (splenocytes [2]) | humoral response, IgG anti-GALNS in plasma ([3]; C2 mice) | humoral response, IgG anti-GALNS in plasma ([3]; MKC mice) | humoral response, IgG anti-GALNS in plasma ([3]; MTol mice) | humoral response, IgG anti-GALNS in plasma ([3]; WT mice)
1 | QQHQEALVPAQPQLNVTNWA (listed as Homo sapiens) [Peptide I10] | highest response at 16 weeks | strong response | strong response |  |  |  | 
2 | N-acetylgalactosamine-6-sulfatase (protein, listed as Homo sapiens, recombinant human GALNS produced in CHO cells, used for ERT and oral tolerance) APQPPNILLLLMDDMGWGDLGVYGEPSRETPNLDRMAAEGLLFPNFYSANPLCSPSRAALLTGRLPIRNGFYTTNAHARNAYTPQEIVGGIPDSEQLLPELLKKAGYVSKIVGKWHLGHRPQFHPLKHGFDEWFGSPNCHFGPYDNKARPNIPVYRDWEMVGRYYEEFPINLKTGEANLTQIYLQEALDFIKRQARHHPFFLYWAVDATHAPVYASKPFLGTSQRGRYGDAVREIDDSIGKILELLQDLHVADNTFVFFTSDNGAALISAPEQGGSNGPFLCGKQTTFEGGMREPALAWWPGHVTAGQVSHQLGSIMDLFTTSLALAGLTPPSDRAIDGLNLLPTLLQGRLMDRPIFYYRGDTLMAATLGQHKAHFWTWTNSWENFRQGIDFCPGQNVSGVTTHNLEDHTKLPLIFHLGRDPGERFPLSFASAEYQEALSRITSVVQQHQEALVPAQPQLNVCNWAVMNWAPPGCEKLGKCLTPPESIPKKCLWSH | highest response at 16 weeks |  |  | heterogeneous humoral response | stronger and more homogeneous response | lowest levels of response | heterogeneous humoral response
